Columns and labels:
[1] = biological target: T1, recombinant human ROR1 extracellular domain protein (human, UniProt Q01973 30-406); assay: Octet, monovalent binding to human ROR1
T1 construct: extracellular domain; Analyte in solution in the Octet assay; also called human ROR1 ECD

[2] = biological target: mouse ROR1 (serum titer ELISA antigen) (mouse, UniProt Q9Z139 30-403, limits assumed); assay: ELISA, direct coat; BCC supernatant
Human ROR2 [3] = biological target: T2, Human ROR2 (human, UniProt Q01974); assay: ELISA, direct coat; BCC supernatant
T2 sequence (Q01974 34-403 limits assumed): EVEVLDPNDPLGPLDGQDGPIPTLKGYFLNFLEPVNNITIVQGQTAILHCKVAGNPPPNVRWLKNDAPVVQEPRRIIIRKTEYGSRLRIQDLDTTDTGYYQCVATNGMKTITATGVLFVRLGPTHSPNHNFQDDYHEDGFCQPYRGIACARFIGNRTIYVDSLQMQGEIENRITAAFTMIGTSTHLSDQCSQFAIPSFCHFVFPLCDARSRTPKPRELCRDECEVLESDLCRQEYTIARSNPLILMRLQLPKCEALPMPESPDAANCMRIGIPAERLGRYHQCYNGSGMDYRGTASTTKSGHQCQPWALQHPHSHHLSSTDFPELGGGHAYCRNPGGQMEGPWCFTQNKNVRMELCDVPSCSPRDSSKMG

[4] = biological target: T1, recombinant human ROR1 extracellular …; assay: ELISA, direct coat; BCC supernatant
[5] = biological target: T3, human ROR1 'Ig-Frizzled domain' (human, UniProt Q01973); assay: ELISA, direct coat; BCC supernatant
T3 construct: used plain or biotinylated
T3 sequence (Q01973 30-305 limits assumed): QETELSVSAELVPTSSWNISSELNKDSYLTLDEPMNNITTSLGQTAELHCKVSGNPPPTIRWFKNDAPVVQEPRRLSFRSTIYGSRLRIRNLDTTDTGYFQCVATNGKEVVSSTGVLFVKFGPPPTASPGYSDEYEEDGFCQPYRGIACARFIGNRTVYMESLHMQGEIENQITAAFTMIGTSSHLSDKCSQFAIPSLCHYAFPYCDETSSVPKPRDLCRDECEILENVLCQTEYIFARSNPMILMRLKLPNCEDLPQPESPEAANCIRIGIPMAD

[6] = biological target: T4, human ROR1 'Frizzled-Kringle domain' (human, UniProt Q01973); assay: ELISA, direct coat; BCC supernatant
T4 construct: used plain or biotinylated
T4 sequence (Q01973 165-406 limits assumed): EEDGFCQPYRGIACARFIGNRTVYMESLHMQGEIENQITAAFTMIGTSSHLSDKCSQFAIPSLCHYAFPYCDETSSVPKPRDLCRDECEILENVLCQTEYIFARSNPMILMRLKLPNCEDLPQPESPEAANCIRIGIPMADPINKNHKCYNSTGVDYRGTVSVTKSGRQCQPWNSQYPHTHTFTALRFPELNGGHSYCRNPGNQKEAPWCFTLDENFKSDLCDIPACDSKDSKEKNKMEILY

Human ROR1-CHO cells = biological target: T5, Human ROR1-CHO cells (human, UniProt Q01973); assay: FACS; BCC supernatant
T5 construct: expressed on the surface of CHO cells; also called human ROR1 on CHO cells
T5 sequence (Q01973 30-937 limits assumed): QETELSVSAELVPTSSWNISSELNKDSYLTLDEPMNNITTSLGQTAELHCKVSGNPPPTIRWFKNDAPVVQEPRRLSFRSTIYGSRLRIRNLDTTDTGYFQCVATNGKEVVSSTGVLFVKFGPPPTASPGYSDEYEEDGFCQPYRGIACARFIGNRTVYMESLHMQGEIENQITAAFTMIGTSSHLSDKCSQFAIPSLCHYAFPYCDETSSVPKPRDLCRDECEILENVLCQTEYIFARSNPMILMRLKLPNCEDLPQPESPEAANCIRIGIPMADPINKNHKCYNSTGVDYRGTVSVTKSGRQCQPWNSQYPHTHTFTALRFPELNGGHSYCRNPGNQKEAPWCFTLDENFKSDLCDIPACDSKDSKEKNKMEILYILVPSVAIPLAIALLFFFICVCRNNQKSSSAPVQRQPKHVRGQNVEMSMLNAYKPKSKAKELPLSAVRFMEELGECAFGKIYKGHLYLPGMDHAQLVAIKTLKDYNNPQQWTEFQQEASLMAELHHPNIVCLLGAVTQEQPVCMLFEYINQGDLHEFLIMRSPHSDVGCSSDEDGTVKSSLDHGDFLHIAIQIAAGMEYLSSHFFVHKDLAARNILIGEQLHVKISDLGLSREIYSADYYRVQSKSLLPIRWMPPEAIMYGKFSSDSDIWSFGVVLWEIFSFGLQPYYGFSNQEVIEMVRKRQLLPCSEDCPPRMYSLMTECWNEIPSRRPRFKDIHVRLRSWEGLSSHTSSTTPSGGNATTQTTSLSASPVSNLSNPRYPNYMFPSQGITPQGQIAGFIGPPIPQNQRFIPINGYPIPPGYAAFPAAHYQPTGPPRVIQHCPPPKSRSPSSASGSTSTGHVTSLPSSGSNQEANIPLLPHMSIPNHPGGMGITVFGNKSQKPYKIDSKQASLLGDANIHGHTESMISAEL

[7] = biological target: T3, human ROR1 'Ig-Frizzled domain'; assay: ELISA, biotinylated antigen on avidin plate; BCC supernatant
[8] = biological target: T4, human ROR1 'Frizzled-Kringle domain'; assay: as above
Human ROR2 [9] = biological target: T2, Human ROR2; assay: Octet
[10] = biological target: T1, recombinant human ROR1 extracellular …; assay: Octet, mono-valent binding to human ROR1
Text: The heavy and light chain expression plasmids generated from each well were transiently co-transfected to produce rabbit/human chimeric antibodies. Recombinant antibody supernatants were confirmed to contain anti-ROR1 antibodies using bio-layer interferometry analysis on a ForteBio Octet Red 96 instrument. Anti-human Fc biosensors (Pall ForteBio) were used to capture antibodies in the supernatants. Association to ROR1 was observed by real-time interferometry by placing the biosensors in wells containing recombinant human ROR1 extracellular domain protein. Dissociation was measured after transfer of the biosensors into wells containing 10× kinetics buffer (Pall ForteBio). The software provided by the manufacturer was used to analyze the interferometry data.

mouse ROR1 (serum titer ELISA antigen), sequence (Q9Z139 30-403 limits assumed): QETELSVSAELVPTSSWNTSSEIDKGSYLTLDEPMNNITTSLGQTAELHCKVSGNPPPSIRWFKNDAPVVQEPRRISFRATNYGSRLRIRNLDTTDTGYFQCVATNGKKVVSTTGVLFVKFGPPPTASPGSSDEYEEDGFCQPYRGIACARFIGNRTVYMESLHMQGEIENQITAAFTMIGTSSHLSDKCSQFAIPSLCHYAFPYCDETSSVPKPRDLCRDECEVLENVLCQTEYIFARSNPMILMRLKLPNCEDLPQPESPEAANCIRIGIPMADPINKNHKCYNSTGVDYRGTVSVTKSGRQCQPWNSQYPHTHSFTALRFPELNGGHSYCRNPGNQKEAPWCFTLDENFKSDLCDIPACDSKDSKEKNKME
T1 sequence (Q01973 30-406): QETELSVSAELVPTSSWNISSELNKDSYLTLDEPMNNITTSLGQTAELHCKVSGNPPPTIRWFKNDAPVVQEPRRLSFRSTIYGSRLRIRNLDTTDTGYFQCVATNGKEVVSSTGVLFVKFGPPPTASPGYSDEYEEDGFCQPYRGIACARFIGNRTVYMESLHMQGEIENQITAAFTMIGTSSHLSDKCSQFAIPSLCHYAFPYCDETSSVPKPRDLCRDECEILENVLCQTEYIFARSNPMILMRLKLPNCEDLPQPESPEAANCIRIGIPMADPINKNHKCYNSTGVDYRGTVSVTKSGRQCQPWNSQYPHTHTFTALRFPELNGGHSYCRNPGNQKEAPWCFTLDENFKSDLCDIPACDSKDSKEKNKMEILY

B1: 323H7 humanized antibody (antibody, human IgG1, kappa, V domains shown)
VH: EVQLLESGGGLVQPGGSLRLSCAASGFTISRYHMTWVRQAPGKGLEWIGHIYVNNDDTDYASSAKGRFTISRDNSKNTLYLQMNSLRAEDTATYFCARLDVGGGGAYIGDIWGQGTLVTVSS
VL: DIQMTQSPSSLSASVGDRVTITCQSSQSVYNNNDLAWYQQKPGKVPKLLIYYASTLASGVPSRFSGSGSGTDFTLTISSLQPEDVATYYCAGGYDTDGLDTFAFGGGTKVEIKR
notes: Human gamma-1 and human kappa constant domains
B1 was tested, and the koff [1] was 0.0007 s⁻¹.

B2: 330F11 (antibody, V domains shown)
VH: QSVEESGGRLVTPGTPLTLTCTVSGFSLNNYWMSWVRQAPGEGLEWIGTISSGAYTWFATWATGRFTISKTSTTVDLSITSPTTEDTATYFCARYSSTTDWTYFNIWGPGTLVTVSS
VL: DVVMTQTPASVEAAVGGTVTIKCQASQSINNYLAWYQQKPGQPPKLLIYRASTLESGVPSRFKGSGSGTQFTLTISDLECADAATYYCQSYNGVGRTAFGGGTEVEFK
notes: chimeric counterpart m9; also called rabbit IgG of BCC well 330F11
B2 was tested, and the “ELISA OD450” value [2] was 4 OD450, the “ELISA OD450” value (Human ROR2 [3]) was 0.25 OD450 and the “ELISA OD450” value [4] was 0.98 OD450. For the same binder, the “ELISA OD450” value [5] was 0.28 OD450, the “ELISA OD450” value [6] was 1.98 OD450 and the “FACS MFI” value (Human ROR1-CHO cells) was 5 MFI. The “ELISA OD450” value [7] was 0.15 OD450 and the “ELISA OD450” value [8] was 1.71 OD450.

B3: 323D10 humanized antibody (antibody, human IgG1, kappa, V domains shown)
VH: EVQLVESGGGLVQPGGSLRLSCTASGFSLSRNAMNWVRQAPGKGLEYIGYISTSGTTFYANSVKGRFTISKDNTKNTVDLQMNSLRAEDTAVYYCARDYNYAMDIWGQGTLVTVSS
VL: AIDLTQSPSTLSASVGGTITINCQASESISSWLAWYQQKPGKAPKLLIYETSKLASGVPSRFSGSGSGTEFTLTISSLQPDDFATYYCQSYYRINNIGYDNAFGGGTKVEIKR
notes: as for B1
Work on B3 yielded a koff [1] of 0.00424 s⁻¹.

B4: 330F11 humanized antibody (antibody, human IgG1, kappa, V domains shown)
VH: EVQLVESGGGLVQPGGSLRLSCAASGFSLNNYWMSWVRQAPGKGLEWIGTISSGAYTWFATWATGRFTISRDNSKNTLYLQMNSLRAEDTAVYYCARYSSTTDWTYFNIWGQGTLVTVSS
VL: DIQMTQSPSTLSASVGDRVTITCQASQSINNYLAWYQQKPGKAPKLLIYRASTLESGVPSRFSGSGSGTEFTLTISSLQPDDFATYYCQSYNGVGRTAFGGGTKVEIKR
notes: as for B1
Work on B4 yielded a koff [1] of 0.0297 s⁻¹.

B5: 226E12 humanized antibody (antibody, human IgG1, kappa, V domains shown)
VH: EVQLLESGGGLVQPGGSLRLSCAASGFSLSNYYMSWVRQAPGKGLEWIGAINADSDNTWYPSWVKGRFTISRDNSKNTLYLQMNSLRAEDTAVYYCARSVSNNFAEYNIWGQGTLVTVSS
VL: DIQMTQSPSSLSASVGDRVTITCQASQRIYSYLAWYQQKPGKVPKLLIYRASTLASGVPSRFSGSGSGTDFTLTISSLQPEDVATYYCQQGASMVDVENMFGGGTKVEIKR
notes: as for B1
B5 gave a koff [1] of 0.0415 s⁻¹.

B6: 323H7 (antibody, V domains shown)
VH: QEQLKESGGGLVTPGGTLTLTCTASGFTISRYHMTWVRQAPGKGLEWIGHIYVNNDDTDYASWAKGRFTISKTSTTVDLKITSPTTEDTATYFCARLDVGGGGAYIGDIWGQGTLVTVSS
VL: QAVVTQTPSSVSAAVGGTVTISCQSSQSVYNNNDLAWYQQKPGQPPKLLIYYASTLASGVSSRFKGSGSGTQFTLAISDLECDDSATYYCAGGYDTDGLDTFAFGGGTEVEVK
notes: chimeric counterpart m3; also called rabbit IgG of BCC well 323H7
B6 was tested, and the “ELISA OD450” value [2] was 0.2 OD450, the binding result [2] was “no binding” and the “ELISA OD450” value (Human ROR2 [3]) was 0.18 OD450. For the same binder, the “ELISA OD450” value [4] was 1.82 OD450, the “ELISA OD450” value [5] was 1.67 OD450 and the “ELISA OD450” value [6] was 0.16 OD450. The “FACS MFI” value (Human ROR1-CHO cells) was 90 MFI, the “ELISA OD450” value [7] was 1.78 OD450 and the “ELISA OD450” value [8] was 0.16 OD450.

B7: 324C6 humanized antibody (antibody, human IgG1, kappa, V domains shown)
VH: QSLVESGGGLVQPGGSLRLSCTASGFSLSRYYMTWVRQAPGKGLEWIGTIYTSGSTWYASWTKGRFTISKDNTKNTVDLQMNSLRAEDTAVYYCARSYYGGDKTGLGIWGQGTLVTVSS
VL: DIQMTQSPSTLSASVGDRVTITCQASQSIDSWLSWYQQKPGKAPKLLIYQASTLASGVPSRFSGSGSGTEFTLTISSLQPDDFATYYCQSAYGVSGTSSYLYTFGGGTKVEIKR
notes: as for B1
B7 was tested, and the koff [1] was 0.0403 s⁻¹.

B8: 324C6 (antibody, V domains shown)
VH: QSLEESGGRLVTPGTPLTLTCTASGFSLSRYYMTWVRQAPGKGLEWIGTIYTSGSTWYASWTKGRFTISKTSTTVDLKITSPTTEDTATYFCARSYYGGDKTGLGIWGPGTLVTVSS
VL: DVVMTQTPASVEAAVGGTVTIKCQASQSIDSWLSWYQQKPGQPPKLLIYQASTLASGVSSRFKGSGSGTEFTLTISDLECADAATYYCQCAYGVSGTSSYLYTFGGGTEVEVK
notes: chimeric counterpart m7; also called rabbit IgG of BCC well 324C6
B8 was tested, and the “ELISA OD450” value (Human ROR2 [3]) was 0.17 OD450.

B9: 324C6 chimeric rabbit/human IgG antibody (antibody, V domains shown)
VH: QSLEESGGRLVTPGTPLTLTCTASGFSLSRYYMTWVRQAPGKGLEWIGTIYTSGSTWYASWTKGRFTISKTSTTVDLKITSPTTEDTATYFCARSYYGGDKTGLGIWGPGTLVTVSS
VL: DVVMTQTPASVEAAVGGTVTIKCQASQSIDSWLSWYQQKPGQPPKLLIYQASTLASGVSSRFKGSGSGTEFTLTISDLECADAATYYCQCAYGVSGTSSYLYTFGGGTEVEVKR
notes: Rabbit variable regions on human gamma-1 and human kappa constant domains
B9: no binding (Human ROR2 [9]).

B10: 338H4 (antibody, V domains shown)
VH: QSVEESGGRLVTPGTPLTLTCTVSGFSLSSYAMSWVRQAPGRGLEWIGIIYASGSTYYASWAKGRFTISKTSTTVDLKITSPTTEDTATYFCARIYDGMDLWGPGTLVTVSS
VL: DIVMTQTPASVSAAVGGTVTINCQASQNIYSYLSWYQQKPGQPPKRLIYLASTLASGVPSRFKSSGSGTEYTLTISDLECDDAATYYCQSNYNGNYGFGGGTEVEVK
notes: chimeric counterpart m8; also called rabbit IgG of BCC well 338H4
In the case of B10, the “ELISA OD450” value [2] is reported as 4 OD450, the “ELISA OD450” value (Human ROR2 [3]) is reported as 0.17 OD450 and the “ELISA OD450” value [4] is reported as 4 OD450. For the same binder, the “ELISA OD450” value [5] was 2.77 OD450, the “ELISA OD450” value [6] was 3.01 OD450 and the “ELISA OD450” value [7] was 0.22 OD450. The “ELISA OD450” value [8] was 1.8 OD450.

B11: 338H4 chimeric rabbit/human IgG antibody (antibody, V domains shown)
VH: QSVEESGGRLVTPGTPLTLTCTVSGFSLSSYAMSWVRQAPGRGLEWIGIIYASGSTYYASWAKGRFTISKTSTTVDLKITSPTTEDTATYFCARIYDGMDLWGPGTLVTVSS
VL: DIVMTQTPASVSAAVGGTVTINCQASQNIYSYLSWYQQKPGQPPKRLIYLASTLASGVPSRFKSSGSGTEYTLTISDLECDDAATYYCQSNYNGNYGFGGGTEVEVKR
notes: as for B9
With B11 the koff [10] was 1.17e-08 s⁻¹ and the binding result (Human ROR2 [9]) was “no binding”.

B12: 338H4 humanized antibody (antibody, human IgG1, kappa, V domains shown)
VH: EVQLVESGGGLVQPGGSLRLSCTASGFSLSSYAMSWVRQAPGRGLEWIGIIYASGSTYYASSAKGRFTISKDNTKNTVDLQMNSLRAEDTAVYYCARIYDGMDLWGQGTLVTVSS
VL: DIQMTQSPSSLSASVGDRVTINCQASQNIYSYLSWYQQKPGKVPKRLIYLASTLASGVPSRFSGSGSGTDYTLTISSLQPEDVATYYCQSNYNGNYGFGGGTKVEIKR
notes: as for B1
For B12, the koff [1] was 0.00238 s⁻¹.

B13: 324E2 humanized antibody (antibody, human IgG1, kappa, V domains shown)
VH: QSVEESGGGLVQPGGSLRLSCTASGFSLSNNAITWVRQAPGKGLEYIGIISSSGTTYYASSAKGRFTISKDTSKNTVDLQMNSLRAEDTAVYYCAGAFSVWGQGTLVTVSS
VL: DIQMTQSPSSLSASVGDRVTITCQSSQSVNNNDLAWYQQKPGKAPKRLIYWASKLASGVPSRFSGSGSGTEFTLTISNLQPEDFATYYCAGGYSGNIYGFGGGTKVEIKR
notes: as for B1
B13 was tested, and the koff [1] was 0.0061 s⁻¹.

B14: 324C7 (antibody, V domains shown)
VH: QSVEESGGRLVTPGTPLTLTCTVSGFSLSGAGVSWVRQAPGKGLEWIGYIDSGATTYYASWAKGRFTISKASTTVDLKIASPTTEDTATYFCARGYYGMDPWGQGTLVTVSS
VL: DIVMTQTPASVEVAVGGTVTIKCQASQNIGSDLAWYQQKPGQPPKLLIYTTSNLASGVPSRFKGSGSGTGFTLTISDLECADAASYCCQGGYFSGRNIYGNAFGGGTEVVVK
notes: chimeric counterpart m4; also called rabbit IgG of BCC well 324C7
B14 was tested, and the “ELISA OD450” value [2] was 0.21 OD450, the binding result [2] was “no binding” and the “ELISA OD450” value (Human ROR2 [3]) was 0.18 OD450. The “ELISA OD450” value [4] was 2.74 OD450, the “ELISA OD450” value [5] was 2.46 OD450 and the “ELISA OD450” value [6] was 0.13 OD450. For the same binder, the “FACS MFI” value (Human ROR1-CHO cells) was 190 MFI, the “ELISA OD450” value [7] was 2.67 OD450 and the “ELISA OD450” value [8] was 0.13 OD450.

Source: US20210277109A1 (SYSTIMMUNE, published 2021)
